Experimental data reported in patent US20190358295A1.

Experiments:
[1] = molecular target: Mst1r (macrophage stimulating 1 receptor/RON kinase) on mouse erythroid progenitor cells (mouse) (UniProt Q62190); test: cell-based or functional assay
[2] = molecular target: IL-17Ra on mouse bone marrow erythroid progenitor cells (mouse) (UniProt Q60943); test: cell-based or functional assay
Sequence of UniProt Q60943 (Q60943 32-864): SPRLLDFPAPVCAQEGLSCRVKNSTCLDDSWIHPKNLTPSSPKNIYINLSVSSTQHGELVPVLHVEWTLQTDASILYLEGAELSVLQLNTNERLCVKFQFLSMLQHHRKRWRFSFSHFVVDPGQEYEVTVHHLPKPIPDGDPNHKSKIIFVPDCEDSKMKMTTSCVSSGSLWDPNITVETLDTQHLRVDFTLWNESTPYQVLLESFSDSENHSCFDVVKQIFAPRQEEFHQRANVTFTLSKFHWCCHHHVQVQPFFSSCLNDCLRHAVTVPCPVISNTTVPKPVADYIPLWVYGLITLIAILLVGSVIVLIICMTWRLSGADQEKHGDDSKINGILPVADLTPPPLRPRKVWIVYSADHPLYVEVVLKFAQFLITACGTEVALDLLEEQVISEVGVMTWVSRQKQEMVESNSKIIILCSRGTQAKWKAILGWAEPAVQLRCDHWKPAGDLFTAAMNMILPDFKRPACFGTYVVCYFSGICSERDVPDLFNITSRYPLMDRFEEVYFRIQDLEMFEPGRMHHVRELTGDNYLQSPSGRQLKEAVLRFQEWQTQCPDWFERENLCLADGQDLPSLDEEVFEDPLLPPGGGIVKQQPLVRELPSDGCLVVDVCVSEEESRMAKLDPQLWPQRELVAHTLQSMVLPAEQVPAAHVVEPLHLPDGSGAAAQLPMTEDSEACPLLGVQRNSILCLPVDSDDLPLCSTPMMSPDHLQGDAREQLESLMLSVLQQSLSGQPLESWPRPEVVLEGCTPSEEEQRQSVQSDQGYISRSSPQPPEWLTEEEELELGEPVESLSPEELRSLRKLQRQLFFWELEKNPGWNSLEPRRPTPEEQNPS

Sequence of UniProt Q62190 (Q62190 24-1378): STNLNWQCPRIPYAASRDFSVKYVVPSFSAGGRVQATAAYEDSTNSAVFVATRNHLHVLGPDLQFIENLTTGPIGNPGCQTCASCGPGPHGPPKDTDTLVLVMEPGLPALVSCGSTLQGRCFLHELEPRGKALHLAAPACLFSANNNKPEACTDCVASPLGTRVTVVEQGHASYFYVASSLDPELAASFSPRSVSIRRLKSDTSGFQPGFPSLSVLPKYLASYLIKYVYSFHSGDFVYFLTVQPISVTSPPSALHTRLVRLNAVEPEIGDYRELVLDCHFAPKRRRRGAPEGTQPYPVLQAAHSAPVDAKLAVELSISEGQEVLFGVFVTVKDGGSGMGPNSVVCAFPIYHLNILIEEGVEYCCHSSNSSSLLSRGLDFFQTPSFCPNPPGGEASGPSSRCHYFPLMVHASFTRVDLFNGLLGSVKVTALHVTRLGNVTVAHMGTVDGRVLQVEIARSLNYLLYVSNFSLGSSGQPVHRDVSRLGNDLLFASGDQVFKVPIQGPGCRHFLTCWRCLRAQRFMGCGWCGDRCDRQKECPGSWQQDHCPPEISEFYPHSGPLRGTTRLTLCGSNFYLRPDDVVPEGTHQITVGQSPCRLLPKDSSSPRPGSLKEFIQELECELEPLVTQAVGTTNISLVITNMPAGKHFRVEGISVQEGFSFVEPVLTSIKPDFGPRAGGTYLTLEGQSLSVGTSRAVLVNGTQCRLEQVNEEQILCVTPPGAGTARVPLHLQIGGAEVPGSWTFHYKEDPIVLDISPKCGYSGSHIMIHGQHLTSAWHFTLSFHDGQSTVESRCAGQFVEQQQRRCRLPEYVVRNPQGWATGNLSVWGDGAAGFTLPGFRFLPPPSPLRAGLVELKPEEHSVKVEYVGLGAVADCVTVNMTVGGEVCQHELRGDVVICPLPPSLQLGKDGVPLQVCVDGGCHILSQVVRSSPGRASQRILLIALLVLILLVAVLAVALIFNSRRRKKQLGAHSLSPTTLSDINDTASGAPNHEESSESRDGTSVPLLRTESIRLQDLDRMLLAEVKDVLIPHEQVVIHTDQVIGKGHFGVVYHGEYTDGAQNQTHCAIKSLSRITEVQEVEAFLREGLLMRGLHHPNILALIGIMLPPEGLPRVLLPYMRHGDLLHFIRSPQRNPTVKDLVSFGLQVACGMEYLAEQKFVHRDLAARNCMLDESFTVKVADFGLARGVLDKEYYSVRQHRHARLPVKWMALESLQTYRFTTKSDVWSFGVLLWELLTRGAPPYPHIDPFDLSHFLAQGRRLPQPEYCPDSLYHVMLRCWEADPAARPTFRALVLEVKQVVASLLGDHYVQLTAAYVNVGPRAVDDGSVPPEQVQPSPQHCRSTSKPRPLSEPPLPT

Row | FL CFU-e colony formation at mildly elevated Epo (50 mU/ml) [1] | adult BM CFU-e colony formation at lower Epo (50 mU/ml) [2] | adult BM CFU-e colony formation at maximal levels of Epo [2] | Molecule
1 | > 2 fold | – | – | MSP/MST1 (R&D systems; CAT #6244-MS-025) (from UniProt P26928 19-716) (ligand)
2 | – | 4 fold | 50% | Recombinant Murine IL17 (IL-17A) (PeproTech) (ligand, UniProt Q62386 26-158, looked up) AAIIPQSSACPNTEAKDFLQNVKVNLKVFNSLGAKVSSRRPSDYLNRSTSPWTLHRNEDPDRYPSVIWEAQCRHQRCVNAEGKLDHHMNSVLIQQEILVLKREPESCPFTFRVEKMLVGVGCTCVASIVRQAA
